Assay results published in patent US20060148746, “Nucleic acid inhibitors of glutamate receptors” (published 2006).

Target: GluR2Qflip AMPA receptor (homomeric channel) (UniProt P19491-2 P19491-2:22-883)
Assay: inhibition; intrinsic KI, whole-cell current, competitive; pH 7.4, 22 C, -60 mV
Conditions: tags: expressed in HEK-293S cells (co-transfected with GFP and SV40 large T antigen); chain copies: 4
Method: Glutamate, a natural neurotransmitter, was used as the activating ligand, and the resulting receptor response in a single cell was recorded. Recording electrodes were made from glass capillary pipettes and fire polished. The electrode resistance was ˜3M Ω when filled with the electrode solution. The electrode solution contained 110 mM CsF, 30 mM CsCl, 4 mM MaCl, 0.5 mM CaCl₂, 5 mM EGTA, and 10 mM Hepes (pH 7.4 adjusted by CsOH). The external bath solution contained 150 mM NaCl, 3 mM KCl, 1 mM CaCl₂, 1 mM MgCl₂ and 10 mM Hepes (pH7.4 adjusted by NaOH). The GFP fluorescence in transfected cells was visualized using an Axiovert S100 microscope with a fluorescent detection system from Carl Zeiss (Thornwood, N.Y.). The whole-cell current was recorded using an Axonpatch-200B amplifier at a cutoff frequency of 2-20 kHz by a built-in eight-pole Bessel filter and digitized at 5-50 kHz sampling frequency using a Digidata 1322A from Axon Instruments (Union City, Calif.). The data acquisition software was pCLAMP 8, also from Axon Instruments.
The present invention relates to the discovery and characterization of a group of water-soluble AMPA receptor inhibitors, which are RNA aptamers that can fold into unique three-dimensional structures that confer high affinity and specificity against biological targets. […]

Chain of GluR2Qflip AMPA receptor (homomeric channel) (P19491 other isoform, or with tags, fused parts or gaps): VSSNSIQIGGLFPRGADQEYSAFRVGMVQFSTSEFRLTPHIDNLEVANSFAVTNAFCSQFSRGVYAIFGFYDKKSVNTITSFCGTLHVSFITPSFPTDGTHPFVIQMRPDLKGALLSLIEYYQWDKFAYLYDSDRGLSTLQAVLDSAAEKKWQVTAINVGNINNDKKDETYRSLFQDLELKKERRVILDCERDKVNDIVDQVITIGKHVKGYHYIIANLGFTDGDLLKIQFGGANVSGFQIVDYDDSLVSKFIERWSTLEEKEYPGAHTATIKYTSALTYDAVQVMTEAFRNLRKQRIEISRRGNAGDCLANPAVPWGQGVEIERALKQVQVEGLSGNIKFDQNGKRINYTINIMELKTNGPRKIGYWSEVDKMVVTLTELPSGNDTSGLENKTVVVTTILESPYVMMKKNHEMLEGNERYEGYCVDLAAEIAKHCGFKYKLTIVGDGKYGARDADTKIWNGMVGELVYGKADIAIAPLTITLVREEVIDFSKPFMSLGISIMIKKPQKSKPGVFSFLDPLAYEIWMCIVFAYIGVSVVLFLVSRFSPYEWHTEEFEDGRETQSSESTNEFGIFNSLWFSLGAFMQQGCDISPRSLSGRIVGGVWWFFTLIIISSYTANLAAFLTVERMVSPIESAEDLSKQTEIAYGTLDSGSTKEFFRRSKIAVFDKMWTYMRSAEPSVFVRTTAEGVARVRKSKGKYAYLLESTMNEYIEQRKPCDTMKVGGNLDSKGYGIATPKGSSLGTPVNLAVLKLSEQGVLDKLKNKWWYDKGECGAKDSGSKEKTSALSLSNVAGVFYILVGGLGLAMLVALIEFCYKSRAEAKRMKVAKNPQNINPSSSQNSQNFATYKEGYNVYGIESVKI

B1: AN57 (57-nt minimal aptamer, M1+M2 mixture) (ssRNA)
RNA: GGGCGAAUUCACUGCCAUCUAGGCAGUAACCAGGAGUUAGUAGGACAAGUUUCGUCC
Ki: 133 nM
